According to patent US20200283521A1 (GRANULAR THERAPEUTICS, published 2020):

Molecular target: T1, human C-KIT-Fc (human, UniProt P10721 26-524)
T1 construct: also called biotinylated human C-KIT-Fc; not shown: Fc part not described
Assay: direct ELISA;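 note: Plate-coated C-KIT-Fc (1 µg/ml) probed with antibodies for 1 hr, bound IgG detected via anti-human kappa-HRP and TMB, absorbance measured at 450 nm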

binding result	Binder
binds	MH5.3 (antibody, IgG1, V domains shown, IgG1) VH: QVQLVQSGAEVKKPGASVKVSCKASGYTFTDHYMNWVRQAPGQGLEWMGRIYPGTGNTYYAQKFQGRVTMTRDTSTSTVYMELSSLRSEDTAVYYCARGVWYYDYWGQGTLVTVSS VL: DIQMTQSPSSLSASVGDRVTITCRASQGIRTNLAWFQQKPGKAPKSLIYAASSLQSGVPSRFSGSGSGTDFTLTISSLQPEDFATYYCQQYANYPRTFGGGTKVEIK
binds	MH5.13 (antibody, IgG1, V domains shown, IgG1) VH: QVQLVQSGAEVKKPGASVKVSCKASGYTFTDHYMNWVRQAPGQGLEWMGRIYPASGNTYYAQKFQGRVTMTRDTSTSTVYMELSSLRSEDTAVYYCARGVWYFDTWGQGTLVTVSS VL: DIQMTQSPSSLSASVGDRVTITCRASQGIRTNLAWFQQKPGKAPKSLIYAASSLQSGVPSRFSGSGSGTDFTLTISSLQPEDFATYYCQQYANYPRTFGGGTKVEIK
binds	MH5.11 (antibody, IgG1, V domains shown, IgG1) VH: QVQLVQSGAEVKKPGASVKVSCKASGYTFTDHYMNWVRQAPGQGLEWMGRIYPASGNTYYAQKFQGRVTMTRDTSTSTVYMELSSLRSEDTAVYYCARGVWYYDYWGQGTLVTVSS VL: DIQMTQSPSSLSASVGDRVTITCRASQGIRTNLAWFQQKPGKAPKSLIYAASSLQSGVPSRFSGSGSGTDFTLTISSLQPEDFATYYCQQYANYPRTFGGGTKVEIK
binds	MH5.17 (antibody, IgG1, V domains shown, IgG1) VH: QVQLVQSGAEVKKPGASVKVSCKASGYTFTDFYMNWVRQAPGQGLEWMGRIYPGTGNTYYAQKFQGRVTMTRDTSTSTVYMELSSLRSEDTAVYYCARGVWYFDEWGQGTLVTVSS VL: DIQMTQSPSSLSASVGDRVTITCRASQGIRTNLAWFQQKPGKAPKSLIYAASSLQSGVPSRFSGSGSGTDFTLTISSLQPEDFATYYCQQYANYPRTFGGGTKVEIK
binds	MH5.20 (antibody, IgG1, V domains shown, IgG1) VH: QVQLVQSGAEVKKPGASVKVSCKASGYTFTDFYMNWVRQAPGQGLEWMGRIYPGAGNTYYAQKFQGRVTMTRDTSTSTVYMELSSLRSEDTAVYYCARGVWYFDTWGQGTLVTVSS VL: DIQMTQSPSSLSASVGDRVTITCRASQGIRTNLAWFQQKPGKAPKSLIYAASSLQSGVPSRFSGSGSGTDFTLTISSLQPEDFATYYCQQYANYPRTFGGGTKVEIK
binds	MH5.14 (antibody, IgG1, V domains shown, IgG1) VH: QVQLVQSGAEVKKPGASVKVSCKASGYTFTDHYMNWVRQAPGQGLEWMGRIYPASGNTYYAQKFQGRVTMTRDTSTSTVYMELSSLRSEDTAVYYCARGVWYFDEWGQGTLVTVSS VL: DIQMTQSPSSLSASVGDRVTITCRASQGIRTNLAWFQQKPGKAPKSLIYAASSLQSGVPSRFSGSGSGTDFTLTISSLQPEDFATYYCQQYANYPRTFGGGTKVEIK
binds	MH5.5 (antibody, IgG1, V domains shown, IgG1) VH: QVQLVQSGAEVKKPGASVKVSCKASGYTFTDHYMNWVRQAPGQGLEWMGRIYPGTGNTYYAQKFQGRVTMTRDTSTSTVYMELSSLRSEDTAVYYCARGVWYFDTWGQGTLVTVSS VL: DIQMTQSPSSLSASVGDRVTITCRASQGIRTNLAWFQQKPGKAPKSLIYAASSLQSGVPSRFSGSGSGTDFTLTISSLQPEDFATYYCQQYANYPRTFGGGTKVEIK
binds	MH5.18 (antibody, IgG1, V domains shown, IgG1) VH: QVQLVQSGAEVKKPGASVKVSCKASGYTFTDFYMNWVRQAPGQGLEWMGRIYPGAGNTYYAQKFQGRVTMTRDTSTSTVYMELSSLRSEDTAVYYCARGVWYYDYWGQGTLVTVSS VL: DIQMTQSPSSLSASVGDRVTITCRASQGIRTNLAWFQQKPGKAPKSLIYAASSLQSGVPSRFSGSGSGTDFTLTISSLQPEDFATYYCQQYANYPRTFGGGTKVEIK
binds	MH5.9 (antibody, IgG1, V domains shown, IgG1) VH: QVQLVQSGAEVKKPGASVKVSCKASGYTFTDHYMNWVRQAPGQGLEWMGRIYPGAGNTYYAQKFQGRVTMTRDTSTSTVYMELSSLRSEDTAVYYCARGVWYFDTWGQGTLVTVSS VL: DIQMTQSPSSLSASVGDRVTITCRASQGIRTNLAWFQQKPGKAPKSLIYAASSLQSGVPSRFSGSGSGTDFTLTISSLQPEDFATYYCQQYANYPRTFGGGTKVEIK
binds	MH5.12 (antibody, IgG1, V domains shown, IgG1) VH: QVQLVQSGAEVKKPGASVKVSCKASGYTFTDHYMNWVRQAPGQGLEWMGRIYPASGNTYYAQKFQGRVTMTRDTSTSTVYMELSSLRSEDTAVYYCARGVWYFDSWGQGTLVTVSS VL: DIQMTQSPSSLSASVGDRVTITCRASQGIRTNLAWFQQKPGKAPKSLIYAASSLQSGVPSRFSGSGSGTDFTLTISSLQPEDFATYYCQQYANYPRTFGGGTKVEIK
binds	MH5.21 (antibody, IgG1, V domains shown, IgG1) VH: QVQLVQSGAEVKKPGASVKVSCKASGYTFTDFYMNWVRQAPGQGLEWMGRIYPGAGNTYYAQKFQGRVTMTRDTSTSTVYMELSSLRSEDTAVYYCARGVWYFDEWGQGTLVTVSS VL: DIQMTQSPSSLSASVGDRVTITCRASQGIRTNLAWFQQKPGKAPKSLIYAASSLQSGVPSRFSGSGSGTDFTLTISSLQPEDFATYYCQQYANYPRTFGGGTKVEIK
binds	MH5.8 (antibody, IgG1, V domains shown, IgG1) VH: QVQLVQSGAEVKKPGASVKVSCKASGYTFTDHYMNWVRQAPGQGLEWMGRIYPGAGNTYYAQKFQGRVTMTRDTSTSTVYMELSSLRSEDTAVYYCARGVWYFDSWGQGTLVTVSS VL: DIQMTQSPSSLSASVGDRVTITCRASQGIRTNLAWFQQKPGKAPKSLIYAASSLQSGVPSRFSGSGSGTDFTLTISSLQPEDFATYYCQQYANYPRTFGGGTKVEIK
binds	MH5.7 (antibody, IgG1, V domains shown, IgG1) VH: QVQLVQSGAEVKKPGASVKVSCKASGYTFTDHYMNWVRQAPGQGLEWMGRIYPGAGNTYYAQKFQGRVTMTRDTSTSTVYMELSSLRSEDTAVYYCARGVWYYDYWGQGTLVTVSS VL: DIQMTQSPSSLSASVGDRVTITCRASQGIRTNLAWFQQKPGKAPKSLIYAASSLQSGVPSRFSGSGSGTDFTLTISSLQPEDFATYYCQQYANYPRTFGGGTKVEIK
binds	MH5.19 (antibody, IgG1, V domains shown, IgG1) VH: QVQLVQSGAEVKKPGASVKVSCKASGYTFTDFYMNWVRQAPGQGLEWMGRIYPGAGNTYYAQKFQGRVTMTRDTSTSTVYMELSSLRSEDTAVYYCARGVWYFDSWGQGTLVTVSS VL: DIQMTQSPSSLSASVGDRVTITCRASQGIRTNLAWFQQKPGKAPKSLIYAASSLQSGVPSRFSGSGSGTDFTLTISSLQPEDFATYYCQQYANYPRTFGGGTKVEIK
binds	MH5.16 (antibody, IgG1, V domains shown, IgG1) VH: QVQLVQSGAEVKKPGASVKVSCKASGYTFTDFYMNWVRQAPGQGLEWMGRIYPGTGNTYYAQKFQGRVTMTRDTSTSTVYMELSSLRSEDTAVYYCARGVWYFDTWGQGTLVTVSS VL: DIQMTQSPSSLSASVGDRVTITCRASQGIRTNLAWFQQKPGKAPKSLIYAASSLQSGVPSRFSGSGSGTDFTLTISSLQPEDFATYYCQQYANYPRTFGGGTKVEIK
binds	MH5.25 (antibody, IgG1, V domains shown, IgG1) VH: QVQLVQSGAEVKKPGASVKVSCKASGYTFTDFYMNWVRQAPGQGLEWMGRIYPASGNTYYAQKFQGRVTMTRDTSTSTVYMELSSLRSEDTAVYYCARGVWYFDEWGQGTLVTVSS VL: DIQMTQSPSSLSASVGDRVTITCRASQGIRTNLAWFQQKPGKAPKSLIYAASSLQSGVPSRFSGSGSGTDFTLTISSLQPEDFATYYCQQYANYPRTFGGGTKVEIK
